Assay results from paper PMC10206564.

Biological target: His954 (UniProt position 954, […])
Assay: NMR
Conditions: 30 mM NaCl plus 20 mM sodium phosphate, Folded post-fusion six-helix bundle (6HB) state, 0.15 mM protein, no lipid

For “Spike glycoprotein S2 HR1-HR2 fusion core ('Core') Q954H variant (Severe acute respiratory syndrome coronavirus 2 (SARS-CoV-2); Q954H)”, which pKa is on record?
The pKa was 6.40.
